{"source": "patent US20250339531A1", "about": "(FRED HUTCHINSON CANCER CENTER, published 2025)", "binders": {"B1": {"name": "i3XFLAG-NLS-CTDaa154-424 (other)", "chain": "MDYKDHDGDYKDHDIDYKDDDDKPPKRMRREPKKKRKVGRAPAQAGGLCSAAPGGGHPAPSWVAFAHTGAWGTGLPAPHVPCAPGALPQGAFVSQAARAAPALQPSQAAPAEGISQPAPARGDFAYAAPAPPDGALSHPQAPRWPPHPGKSREDRDPQRDGLPGPCAVAQPGPAQAGPQGQGVLAPPTSQGSPWWGWGRGPQVAGAAWEPQAGAAPPPQPAPPDASASARQGQMQGIPAPSQALQEPAPWSALPCGLLLDELLASPEFLQQAQPLLETEAPGELEASEEAASLEAPLSEEEYRALLEEL", "notes": "Doxycycline-induced in MB135 cells for co-IP; also called longCTD; iDUX4-CTD"}}, "key": {"[1]": {"molecular_target": "ATP-dependent RNA helicase DDX3X (Homo sapiens, UniProt O00571 2-662)", "sequence (O00571 2-662 limits assumed)": "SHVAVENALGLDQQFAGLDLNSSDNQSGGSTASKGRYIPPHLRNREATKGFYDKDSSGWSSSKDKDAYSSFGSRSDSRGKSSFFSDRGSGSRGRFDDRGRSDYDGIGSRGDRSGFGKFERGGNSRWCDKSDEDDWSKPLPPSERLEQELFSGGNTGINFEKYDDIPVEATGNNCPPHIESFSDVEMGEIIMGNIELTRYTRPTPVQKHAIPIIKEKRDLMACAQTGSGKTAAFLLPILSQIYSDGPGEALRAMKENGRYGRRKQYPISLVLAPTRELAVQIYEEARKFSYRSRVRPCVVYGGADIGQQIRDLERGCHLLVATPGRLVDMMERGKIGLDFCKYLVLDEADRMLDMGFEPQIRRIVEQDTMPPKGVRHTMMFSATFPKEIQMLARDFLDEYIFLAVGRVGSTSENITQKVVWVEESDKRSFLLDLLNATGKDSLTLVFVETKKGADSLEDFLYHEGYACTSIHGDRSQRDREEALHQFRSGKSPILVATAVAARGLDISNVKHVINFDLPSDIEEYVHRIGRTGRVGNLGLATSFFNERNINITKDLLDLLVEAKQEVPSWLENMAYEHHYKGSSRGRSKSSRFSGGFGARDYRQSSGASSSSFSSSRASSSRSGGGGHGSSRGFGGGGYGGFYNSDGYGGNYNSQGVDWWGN", "test": "anti-FLAG co-IP LC-MS, exp 3, +Dox"}, "[2]": {"molecular_target": "T1, Heterogeneous nuclear ribonucleoprotein U (Homo sapiens, UniProt Q00839 2-825)", "T1 construct": "also called HNRNPU; HNRPU", "T1 sequence (Q00839 2-825 limits assumed)": "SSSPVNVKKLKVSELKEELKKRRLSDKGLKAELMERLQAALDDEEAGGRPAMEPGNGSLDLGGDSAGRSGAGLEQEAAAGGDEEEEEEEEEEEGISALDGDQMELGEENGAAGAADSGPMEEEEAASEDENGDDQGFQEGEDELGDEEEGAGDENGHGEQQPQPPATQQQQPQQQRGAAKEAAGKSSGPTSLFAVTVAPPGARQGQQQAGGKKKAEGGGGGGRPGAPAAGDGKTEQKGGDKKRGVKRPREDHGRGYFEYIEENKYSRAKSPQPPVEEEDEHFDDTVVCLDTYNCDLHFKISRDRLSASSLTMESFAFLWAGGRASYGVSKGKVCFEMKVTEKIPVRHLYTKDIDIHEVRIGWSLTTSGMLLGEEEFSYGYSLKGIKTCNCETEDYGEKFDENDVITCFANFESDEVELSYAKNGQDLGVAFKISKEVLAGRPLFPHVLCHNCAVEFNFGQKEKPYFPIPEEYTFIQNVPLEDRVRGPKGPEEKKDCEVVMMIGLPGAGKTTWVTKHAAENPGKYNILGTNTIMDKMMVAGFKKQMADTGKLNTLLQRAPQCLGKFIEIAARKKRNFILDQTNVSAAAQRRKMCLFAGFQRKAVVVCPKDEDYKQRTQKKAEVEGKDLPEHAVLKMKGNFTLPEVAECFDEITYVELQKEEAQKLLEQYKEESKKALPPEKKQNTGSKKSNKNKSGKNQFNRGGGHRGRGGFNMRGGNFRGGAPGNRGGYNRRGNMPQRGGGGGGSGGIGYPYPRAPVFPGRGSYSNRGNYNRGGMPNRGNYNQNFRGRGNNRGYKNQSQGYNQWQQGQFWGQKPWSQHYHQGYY", "test": "anti-FLAG co-IP LC-MS, exp 3, +Dox"}, "[3]": {"molecular_target": "T2, Nuclease-sensitive element-binding protein 1 (Fragment) (Homo sapiens, UniProt P67809 2-324)", "T2 construct": "also called YBX1", "T2 sequence (P67809 2-324 limits assumed)": "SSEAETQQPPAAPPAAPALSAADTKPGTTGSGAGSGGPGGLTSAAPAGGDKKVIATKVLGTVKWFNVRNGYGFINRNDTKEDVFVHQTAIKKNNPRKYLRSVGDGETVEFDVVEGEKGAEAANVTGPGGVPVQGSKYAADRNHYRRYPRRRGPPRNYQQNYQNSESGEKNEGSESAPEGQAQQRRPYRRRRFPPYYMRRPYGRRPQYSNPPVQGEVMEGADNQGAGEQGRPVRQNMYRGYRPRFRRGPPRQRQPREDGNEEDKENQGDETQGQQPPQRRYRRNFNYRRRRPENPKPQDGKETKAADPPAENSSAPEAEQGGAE", "test": "anti-FLAG co-IP LC-MS, exp 3, +Dox"}, "[4]": {"molecular_target": "T3, DNA-dependent protein kinase catalytic subunit (Homo sapiens, UniProt P78527 1-4128)", "T3 construct": "also called PRKDC", "test": "anti-FLAG co-IP LC-MS, exp 3, +Dox"}, "[5]": {"molecular_target": "T4, Heterogeneous nuclear ribonucleoprotein M (Homo sapiens, UniProt P52272 2-730)", "T4 construct": "also called HNRNPM", "T4 sequence (looked up)": "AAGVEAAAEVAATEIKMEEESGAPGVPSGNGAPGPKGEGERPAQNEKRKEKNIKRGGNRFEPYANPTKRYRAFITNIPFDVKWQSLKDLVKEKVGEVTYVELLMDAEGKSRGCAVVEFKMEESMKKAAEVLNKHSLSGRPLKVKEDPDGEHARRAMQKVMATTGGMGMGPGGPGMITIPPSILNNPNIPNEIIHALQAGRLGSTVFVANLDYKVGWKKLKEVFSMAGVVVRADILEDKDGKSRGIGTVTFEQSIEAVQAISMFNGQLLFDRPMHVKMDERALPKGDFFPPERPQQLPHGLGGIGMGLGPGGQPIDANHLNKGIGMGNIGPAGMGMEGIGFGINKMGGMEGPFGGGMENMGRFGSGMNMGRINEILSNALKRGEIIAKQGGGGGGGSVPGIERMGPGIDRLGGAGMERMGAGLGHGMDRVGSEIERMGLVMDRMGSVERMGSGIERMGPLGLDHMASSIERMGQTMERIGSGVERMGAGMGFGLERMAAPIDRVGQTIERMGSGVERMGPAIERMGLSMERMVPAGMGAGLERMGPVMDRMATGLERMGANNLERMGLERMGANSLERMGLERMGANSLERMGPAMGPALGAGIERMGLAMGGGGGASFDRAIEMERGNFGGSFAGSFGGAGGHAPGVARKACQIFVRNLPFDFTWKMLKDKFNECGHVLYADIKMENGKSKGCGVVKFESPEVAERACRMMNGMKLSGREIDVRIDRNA", "test": "anti-FLAG co-IP LC-MS, exp 3, +Dox"}, "[6]": {"molecular_target": "T5, Immunoglobulin kappa variable 2-40 (Homo sapiens)", "T5 construct": "also called IGKV2-40", "T5 sequence (A0A087WW87 20-121)": "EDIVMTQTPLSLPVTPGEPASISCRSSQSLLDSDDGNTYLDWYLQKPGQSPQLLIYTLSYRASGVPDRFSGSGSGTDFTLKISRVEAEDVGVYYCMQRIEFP", "test": "anti-FLAG co-IP LC-MS, exp 3, +Dox"}, "[7]": {"molecular_target": "T6, Proteasome subunit alpha type (Homo sapiens)", "T6 construct": "also called PSMA6", "test": "anti-FLAG co-IP LC-MS, exp 3, +Dox"}, "[8]": {"molecular_target": "T7, Cyclin-dependent kinase 4 (Homo sapiens, UniProt P11802 2-303)", "T7 construct": "also called CDK4", "T7 sequence (P11802 2-303 limits assumed)": "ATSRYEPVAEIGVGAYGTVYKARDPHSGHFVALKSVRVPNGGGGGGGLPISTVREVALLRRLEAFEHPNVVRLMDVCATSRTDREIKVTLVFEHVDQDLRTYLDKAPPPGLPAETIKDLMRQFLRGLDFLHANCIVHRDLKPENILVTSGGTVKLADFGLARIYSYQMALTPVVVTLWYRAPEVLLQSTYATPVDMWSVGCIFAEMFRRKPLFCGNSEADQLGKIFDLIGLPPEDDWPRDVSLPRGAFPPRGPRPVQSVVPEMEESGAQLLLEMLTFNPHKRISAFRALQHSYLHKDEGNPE", "test": "anti-FLAG co-IP LC-MS, exp 3, +Dox"}, "3×MYC-STAT1-S727E": {"molecular_target": "T8, 3×MYC-STAT1-S727E (UniProt P42224 1-750)", "T8 construct": "In vitro translated in rabbit reticulocyte lysate; also called phospho-mimic STAT1-S727E; not shown: 3×MYC tag", "T8 sequence (looked up)": "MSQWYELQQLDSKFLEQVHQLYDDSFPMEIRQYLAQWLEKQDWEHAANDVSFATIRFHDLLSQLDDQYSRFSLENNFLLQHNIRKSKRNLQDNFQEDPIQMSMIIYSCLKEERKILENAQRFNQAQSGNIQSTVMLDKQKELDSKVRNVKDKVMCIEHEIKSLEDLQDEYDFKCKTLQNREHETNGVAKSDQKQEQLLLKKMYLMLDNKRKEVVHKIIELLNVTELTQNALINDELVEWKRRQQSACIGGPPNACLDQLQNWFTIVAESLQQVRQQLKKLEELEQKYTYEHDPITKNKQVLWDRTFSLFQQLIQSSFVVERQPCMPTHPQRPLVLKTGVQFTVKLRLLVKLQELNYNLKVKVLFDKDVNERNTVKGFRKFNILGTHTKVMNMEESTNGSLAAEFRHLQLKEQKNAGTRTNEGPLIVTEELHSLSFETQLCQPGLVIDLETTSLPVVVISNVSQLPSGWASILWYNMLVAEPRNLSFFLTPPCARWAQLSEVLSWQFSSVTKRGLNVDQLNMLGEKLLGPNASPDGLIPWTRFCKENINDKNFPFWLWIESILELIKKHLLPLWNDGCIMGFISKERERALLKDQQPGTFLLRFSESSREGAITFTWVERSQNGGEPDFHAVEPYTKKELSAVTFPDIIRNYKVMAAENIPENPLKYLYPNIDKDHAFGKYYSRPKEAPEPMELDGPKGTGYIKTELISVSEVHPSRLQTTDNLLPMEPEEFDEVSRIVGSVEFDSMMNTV", "test": "anti-FLAG IP of in vitro translated proteins, without JAK1 treatment, western"}, "[9]": {"molecular_target": "T3, DNA-dependent protein kinase catalytic …", "test": "anti-FLAG co-IP LC-MS, exp 4, +Dox +IFNG"}, "[10]": {"molecular_target": "T9, Uncharacterized protein (Fragment) (Homo sapiens)", "T9 construct": "also called NA (Homology to TAP2)", "test": "anti-FLAG co-IP LC-MS, exp 4, +Dox +IFNG"}}}
{"binder": "B1", "values": [{"measurement": "PSMs", "setting": "[1]", "value": 29, "unit": "PSMs"}, {"measurement": "PSMs", "setting": "[2]", "value": 4, "unit": "PSMs"}, {"measurement": "PSMs", "setting": "[3]", "value": 5, "unit": "PSMs"}, {"measurement": "PSMs", "setting": "[4]", "value": 3, "unit": "PSMs"}, {"measurement": "PSMs", "setting": "[5]", "value": 9, "unit": "PSMs"}, {"measurement": "PSMs", "setting": "[6]", "value": 2, "unit": "PSMs"}, {"measurement": "PSMs", "setting": "[7]", "value": 1, "unit": "PSMs"}, {"measurement": "PSMs", "setting": "[8]", "value": 1, "unit": "PSMs"}, {"measurement": "binding result", "setting": "3×MYC-STAT1-S727E", "value": "no binding"}, {"measurement": "PSMs", "setting": "[9]", "value": 2, "unit": "PSMs"}, {"measurement": "PSMs", "setting": "[10]", "value": 1, "unit": "PSMs"}]}
